Data from US20180051081A1 (published 2018).

T1: dog CD47 (dog, UniProt A0A8I3PM61 19-310)
T1 construct: also called CD47 on dog RBCs
T1 sequence: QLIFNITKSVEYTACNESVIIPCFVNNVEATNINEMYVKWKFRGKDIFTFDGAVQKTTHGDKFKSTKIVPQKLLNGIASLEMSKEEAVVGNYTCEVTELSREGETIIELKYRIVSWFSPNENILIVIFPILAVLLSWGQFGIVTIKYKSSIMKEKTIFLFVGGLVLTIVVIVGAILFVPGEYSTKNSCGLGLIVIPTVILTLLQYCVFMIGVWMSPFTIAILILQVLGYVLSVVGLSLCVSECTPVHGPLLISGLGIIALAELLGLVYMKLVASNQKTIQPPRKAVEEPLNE

T2: pig CD47 (pig, UniProt Q9GKE8 19-303)
T2 construct: whole, on cells; also called CD47 on porcine RBCs
T2 sequence (looked up): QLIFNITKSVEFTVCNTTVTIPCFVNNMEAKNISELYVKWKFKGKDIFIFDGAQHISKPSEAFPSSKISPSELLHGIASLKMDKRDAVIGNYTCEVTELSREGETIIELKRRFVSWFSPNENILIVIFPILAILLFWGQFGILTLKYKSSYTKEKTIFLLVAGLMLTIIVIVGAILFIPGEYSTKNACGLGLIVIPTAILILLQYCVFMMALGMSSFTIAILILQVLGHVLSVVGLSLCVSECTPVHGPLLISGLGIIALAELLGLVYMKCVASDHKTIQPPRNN

T3: rat CD47 (rat, UniProt P97829 19-303)
T3 construct: whole, on cells; also called CD47 on rat RBCs
T3 sequence (looked up): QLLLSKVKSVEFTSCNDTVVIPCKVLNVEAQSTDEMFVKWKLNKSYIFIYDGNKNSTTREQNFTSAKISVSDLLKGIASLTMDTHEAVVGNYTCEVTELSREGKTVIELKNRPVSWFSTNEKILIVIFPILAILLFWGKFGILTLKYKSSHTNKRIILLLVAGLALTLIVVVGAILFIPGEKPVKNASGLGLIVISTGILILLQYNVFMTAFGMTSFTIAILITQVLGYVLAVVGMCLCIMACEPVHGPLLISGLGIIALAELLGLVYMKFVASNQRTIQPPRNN

T4: mouse CD47 (mouse, UniProt Q61735 19-303)
T4 construct: whole, on cells; also called CD47 on mouse RBCs; CD47 on 4T1 cells
T4 sequence (looked up): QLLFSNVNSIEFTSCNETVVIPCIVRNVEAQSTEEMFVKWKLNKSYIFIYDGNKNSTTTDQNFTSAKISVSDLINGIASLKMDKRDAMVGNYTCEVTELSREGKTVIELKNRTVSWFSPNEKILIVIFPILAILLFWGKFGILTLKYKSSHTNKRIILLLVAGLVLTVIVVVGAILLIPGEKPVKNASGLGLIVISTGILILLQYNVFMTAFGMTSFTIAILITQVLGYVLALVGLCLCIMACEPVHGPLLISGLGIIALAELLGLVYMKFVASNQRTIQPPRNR

B1: Clone 18 (pVxK7b-037-hum18-LC / pVxK7b-037-hum18-HC) (antibody, human IgG1, kappa, V domains shown)
VH: EVQLVQSGAEVKKPGESLRISCKGSGYTFTNYYVFWIRQSPSRGLEWLGDINPVNGDTNFNEKFKNRVTITADKSTSTAYMELSSLRSEDTAVYYCARGGYTMDYWGQGTLVTVSS
VL: EIVLTQSPATLSVSPGERATLSCRSSQSLVHSNGNTYLHWYQQKPGQAPRLLIYKVSYRFSGVPSRFSGSGSGTDFTFTISSLEAEDAATYYCSQNTHVPRTFGQGTKVEIKR
B2: Clone 17 (pVxK7b-037-hum17-LC / pVxK7b-037-hum17-HC) (antibody, human IgG1, kappa)
light: AIQLTQSPSSLSASVGDRVTITCRSSQSLVHSNGNTYLHWYQQKPGQAPRLLIYKVSYRFSGVPDRFSGSGSGTDFTLKISRVEAEDVGVYYCSQNTHVPRTFGQGTKVEIKRTVAAPSVFIFPPSDEQLKSGTASVVCLLNNFYPREAKVQWKVDNALQSGNSQESVTEQDSKDSTYSLSSTLTLSKADYEKHKVYACEVTHQGLSSPVTKSFNRGEC
heavy: not shown
B3: Clone 16 (pVxK7b-037-hum16-LC / pVxK7b-037-hum16-HC) (antibody, human IgG1, kappa, V domains shown)
VH: QVQLQESGPGLVKPSQTLSLTCTVSGYTFTNYYVFWVRQARGQRLEWIGDINPVNGDTNFNEKFKNRVTISADKSISTAYLQWSSLKASDTAMYYCARGGYTMDYWGQGTLVTVSS
VL: AIQLTQSPSSLSASVGDRVTITCRSSQSLVHSNGNTYLHWYQQKPGQAPRLLIYKVSYRFSGVPDRFSGSGSGTDFTLKISRVEAEDVGVYYCSQNTHVPRTFGQGTKVEIKR

target: T1, dog CD47; assay: FACS, dog RBCs, supernatant 10 ng/ml
Experimental: (§1) RBCs are incubated for 60 minutes on ice with tissue culture supernatants containing the secreted humanized antibodies at a concentration of 10 ng/ml in a solution of phosphate buffered saline, pH 7.2, 2.5 mM EDTA (PBS+E), or with various concentrations of purified antibodies. Cells are then washed with cold PBS+E, and incubated for an additional hour on ice with FITC labeled donkey anti-human antibody (Jackson Immuno Research Labs, West Grove, Pa.; Catalogue #709-096-149) in PBS+E. Cells are then washed with PBS+E, and antibody binding is analyzed using a BD FACSAria Cell Sorter (Becton Dickinson) or a C6 Accuri Flow Cytometer (Becton Dickinson). Antibody binding is quantitated by comparison of mean fluorescence values relative to that of chimeric antibody >VxP037-01LC (SEQ ID NO:7))/>VxP037-01HC (SEQ ID NO:57). The mean fluorescence value for each antibody is divided by the mean fluorescence value for the chimeric antibody.

mean fluorescence relative to chimera	Binder
1.5	B1
1.3	B2
1.1	B3

target: T2, pig CD47; assay: FACS, pig RBCs, supernatant 10 ng/ml
Experimental: as §1

mean fluorescence relative to chimera	Binder
1.2	B1
1.3	B2
1.1	B3

target: T3, rat CD47; assay: FACS, rat RBCs, supernatant 10 ng/ml
Experimental: as §1

mean fluorescence relative to chimera	Binder
2.2	B1
2.1	B2
2.1	B3

target: T5, human CD47 (human, UniProt Q08722 19-323); assay: FACS, human RBCs, supernatant 10 ng/ml
T5 construct: whole, on cells; also called CD47 on human RBCs; CD47 on OV10 cells
T5 sequence (Q08722 19-323): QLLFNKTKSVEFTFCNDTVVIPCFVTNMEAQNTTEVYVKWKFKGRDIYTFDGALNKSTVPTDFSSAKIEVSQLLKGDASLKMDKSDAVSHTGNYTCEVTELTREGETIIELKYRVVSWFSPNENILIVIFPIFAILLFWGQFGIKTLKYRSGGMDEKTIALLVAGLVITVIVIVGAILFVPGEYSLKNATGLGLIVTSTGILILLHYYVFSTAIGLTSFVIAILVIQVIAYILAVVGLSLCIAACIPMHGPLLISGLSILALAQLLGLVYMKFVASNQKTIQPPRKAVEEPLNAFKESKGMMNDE
Experimental: as §1

mean fluorescence relative to chimera	Binder
1	B1
0.8	B2
0.9	B3

target: T4, mouse CD47; assay: FACS, mouse RBCs, supernatant 10 ng/ml
Experimental: as §1

mean fluorescence relative to chimera	Binder
1.3	B1
0.9	B2
1	B3
